Experimental data as given in patent US20160053277A1, “Compositions Having Dicamba Decarboxylase Activity and Methods of Use” (PIONEER HI-BRED INTERNATIONAL, INC., priority 2013, published 2016).

Assays:
[1] = Saturation mutagenesis of SEQ ID NO:109: dicamba decarboxylation activity of point mutants (carbon dioxide released); details: decarboxylation activity (carbon dioxide released) of point mutant compared with unmutated backbone protein; backbone SEQ ID NO: 109
[2] = 14C assay with IPTG-induced recombinant E. coli cells: 14CO2 captured from [14C]-carboxyl-labeled dicamba; details: for Enzymatic Detection level: dicamba decarboxylation activity of the protein of the given SEQ ID NO, High / Low / No; for Dicamba Decarboxylase Activity: induced recombinant E. coli cells, [14C]-carboxyl-labeled dicamba, 14CO2 capture

| Molecule | Fold Activity [1] | Enzymatic Detection level [2] | Dicamba Decarboxylase Activity [2] |
| --- | --- | --- | --- |
| 80 (protein, listed as Cordyceps militaris) MAAASTPVVVDIHTHMYPPSYIAMLEKRQTIPLVRTFPQADEPRLILLSSELAALDAALADPAAKLPGRPLSTHFASLAQKMHFMDTNGIRVSVISLANPWFDFLAPDEAPGIADAVNAEFSDMCAQHVGRLFFFAALPLSAPVDAVKASIERVKNLKYCRGIILGTSGLGKGLDDPHLLPVFEAVADAKLLVFLHPHYGLPNEVYGPRSEEYGHVLPLALGFPMETTIAVARMYMAGVFDHVRNLQMLLAHSGGTLPFLAGRIESCIVHDGHLVKTGKVPKDRRTIWTVLKEQIYLDAVIYSEVGLQAAIASSGADRLMFGTDHPFFPPIEEDVQGPWDSSRLNAQAVIKAVGEGSSDAAAVMGLNAVRVLSLKAE | 0.8 | Low | Low |
| 86 (protein, listed as Sphingopyxis alaskensis) MALGASVASREASAQMAKAPMRKIATEEAFATPELAKAWLEIARSEPNSSLDIPTGILSIFDNPRPGSNQDRFRRQLLDVDAERIRDMDEAGVDMQLLSVTIPGVQIFEPARAGELAVTTNDHLAAAIARRPTRFAGLACFAPHDPVQATREMERAVNALGLKGFIVNSHTQDLYLDDPRFAPVLEAAQSLDCPIYLHPRAPSNGMAAPFRDYSMGGSIWGFGVEAGTHAVRMILSGVFDRYPRLRIVLGHMGEALPFWMWRLDHMAARRAKDGRMKPLSLAPSEYFKRNFAVTTSGFESPDVLDLVIKVAGIENIMWAIDYPYESSRDAVTFIEGADLTASQRASIFHRNAVRHFRLS | 1.4 | Low | Low |
| 82 (protein, listed as Rhodopseudomonas palustris) MAQNETPVIAIEEHYWDPEMVARFPAGENASPFSTLLTELGDVRLRAMDEAGIDVQVLSHGAPAAQKLPPDVAPELTRRVNDRLAEACARFPNRFAAFAALPTPAPEAAARELERCVRDLGFKGAMIHGLTNGLFIDDKRFWPIFEVAEKLDVPIYLHPSVPHADVTRYYYDDYAREFPTVIRPAWGFTVETATQAIRLILSRALESYPRLQIILGHLGETLPFLLWRINQALARPGQTPLDFRKQFCDHFHVTTSGFFSTPALICTMLELGIDRIMFAVDYPYVVNRDGTDWVQQLQISPDDKRKLVGGNARRLLKL | 0.9 | Low | Low |
| 85 (protein, listed as Maritimibacter alkaliphilus) MAADRKPGLVSVEEGFMIPEVVAELSRIAGGVPSMKSGPIAGPFMDDLLDIGKGRVARMDADGVAVQILALAAPGVQKFDPDTALALSRLTNDRLAEAIAAHPARFGGLAAAPPQAAREGAKELDRAITTLGLNGLIVNSHTNDLYLDDPSFWPLLEAAEALDVPVYLHPREPAAGIEGGLMAMTGFTVGWAYAVETGTHLLRMIAAGVFDRFPRLRIVLGHLGEMIPFMLDRIDNRYPFEMGVTGAKPLPRKPSDYFRDHVTVATSGMNFNAPMRAAIEVLGADKVMFAADYPMERQDEEVAKFAALDLTPDERKRIGEDNARRVFGL | 1.4 | Low | Low |
| 84 (protein, listed as Mycobacterium rhodesiae) MASLIALEEHYAWDPASEGNVVATWLRANNGVAYDRLYDRGPLRIEQMDAAGIDFQILSLFDPGVQDEVDAVRAVDLARRANDDLAESVRANPSRFGGFATLATQQPDAAVAEFDRAVTELGLVGGLINGHCQGRYLDDPAYEALFSRAEALGAPIYLHPTTPHPAVMDAWFAPYVGDGLHLASWGFAAETGTHVLRLIYSGLFDKFPRLQMIIGHLGEMLPFAAYRIDRYYGLGGGGTGHTLQHLPSDYLRNNFHVTTSGNFCSPALDCTLDVMGADRVMFSVDYPMDDNQTGADFLASYPMDDTNRRKVASENALRLFGDRIPAALRN | 1 | Low | Low |
| 78 (protein, listed as Marinobacter adhaerens) MALIDLHAHAPHPDYYDQHPHWGPAFELQSDGDIKLRVGHWVLSLGAPERKQALREAHARGETLDVQEYMAKWRDPEHRLASMDAAGQNAQVLSVPSHCYMYWAEPEFGVPFAKKVNDSLAEYCSAAPDRLMFWAHAPLNVPKEAAKEIRRACTELGAKGLVAGGSNFGGLEFDSPEMDPVWEALCDLDLPMFVHGYNQSVTWGEEANTDRYETTAIVGMNYDESKCFWYMINGGVFDRFPNLKVYITHGGGFVPYQLGRMAQTNPNLDTYHNKKPFLEYLKNFYFDVELHEVPMRQAMVEVIGADRVLYGSNFGGSDAVRHDLTDDLKLSQEDLDKIRWKNACDLLHLDPNKLGKVRG | 1.1 | Low | Low |
| 73 (protein, listed as Sphaerobacter thermophilus) MARIDAHAHAQPPEYLDALLASGRYESVRDAEGRIVVRERGSRFLTITPQMHHPEQRVAEMDEAGIDMQILSVTTPQVYFLQGQAAVDLARRCNDYLADIVRSYPTRFRALASVPLTADPDAAVREFVRCLDDLGMVGAIIGSNIDGRPIDDPAFDAFYAEADRRATTLFIHPMVPAGIEVMNPYALAPLVGFMFDTTLAVSRLIFSGFFERYPRVKVLVGHLGAAVPYLAGRLDIGWRSYSDCQGIPHPPTEYIRRLYLDTVSFHAPALRCALETVGPDRIVFGSDYPHVIGDVGGAIASIQQALPATTHDGVLGHTAAELFGVSA | 1.2 | Low | Low |
| 76 (protein, listed as Polymorphum gilvum) MAKKIDIFNHIWPEPFFKALIAHIGEMTDITMRSGAVPMMTNLDRRFEVMDMFGPDYMQVLSLASPPLEKLADPAKALELSRIGSDSLAELCQRYPERFPAFIGTAPLSNPAAVVGECRRAIEDLGAAGMQIFTNVAGKPLDLAEFEPFFEYMASAGKPVWLHPARGEAFADYQTEKRSEYEIWWTFGWPYETSAAMARLVFSRMFDKYPGLKVITHHAGGMVPFFEGRVGPGWDQMGARTTDRDLAAVRKALKRPHLDYFKEFYADTASFGSRKAIEHAIEFFGEDRVLFASDAPFDPEGGPMYIRETMRCIDSLDLTDAQRRKIYHGNATALLGLSL | 1.1 | No | No |
| 83 (protein, listed as Mycobacterium rhodesiae) MALIALEEHYAWSPVSAGNVVGSWLETHNVTAYQRLYDRGPLRLEQMDAAGIDFQILSLFDPGVQDDDDTARAVENARRANDDLAETVRAAPDRFGGFATLAPQDPDAAAAELERAVGELGLVGGLINGHTHGRYLDDPAYLGLFECAQRLGVPIYLHPTTPHPAVMDAWFAPYVKDGLHLASWGFAAETGTHALRLIYSGLFDTFPRLQMILGHLGEMLPYAAYRIDRYYGLGGGDDGGRLARLPSEYLRDNFHVTTSGNFNPVAFACALDVMGPDRLMFSVDYPMDDNVTGAEFLRNLEVDDDVRRKVAGENALQLFGDKIPRR | 1.9 | Low | Low |
| 74 (protein, listed as Ramlibacter tataouinensis) MATVIDVHTHMFTTKWLELLKKEGGQYNIQTRPDGQQEIFRGNTPVVIPQKGHFDWKLRIQHMDQAGIDVSVVSLTCPNVYWGGEDVSVRAAREANDNVAQAQTAYPDRIRWFASLPWEYMATVIDVHTHMFTTKWLELLKKEGGQYNIQTRPDGQQEIFRGNTPVVIPQKGHFDWKLRIQHMDQAGIDVSVVSLTCPNVYWGGEDVSVRAAREANDNVAQAQTAYPDRIRWFASLPWEYPQRAVEELERSCAQGAAGVMVLANVAGRSLTDPLFAPVWAEIDRRALPVLVHPTDPPGVDLMDMTKFDLSWSVGFMFDTTLAITRMIFEGFFDRYPNLRIIASHGGGTLPYLVGRFEKGDEVELASRRQMKRKPTDYLRHIHYDCITYNLGALQYLISVVGAGQVMFGTDWPHWVHDTRGAFANTAQLPQEQTRAVRGANAQRLFKL | 1.4 | Low | Low |
| 77 (protein, Burkholderia xenovorans) MALIDLHAHAPHPGYYNQHPHWGPFFERHEDGDVKLRVGDWILTLGSPERKALVRAGKGPTVEEYQARWADPKVRLAGMDAAGQNAQVVSVPSHCYMYWAEKEFSVPFATKVNDTFAEYCSAAPDRLMFWAHAALNAPEQAALELRRACTELGAKGLVAGGANFGGLEFDSPELDPVWKVLCDLDLPMFIHGYNQSVTWGKKANDDRYETTAIVGMQYDETRCFWNLVCGGVLDRFPGLKVYITHGGGYVPYQLGRLAQCNGNLDVAHNKKPVLEYLKNNFYFDVELHEVPMRQALIDIIGADRVLYGSNFGGSDAVRHDLTEGLRLSDDDLQKIRWKNACKLLHLDPAKIGEPAKKQAVSA | 1.3 | No | No |
| 75 (protein, listed as Ectocarpus siliculosus) MAKIDSYTHFACPAFMDHLEAESGHPMVFRGLFSSIPELSDIDLRIRYMDEHGIDVHCLVPLPWLECEPGLHADEGKALEACRIANDEMARVVARFPDRLIGVALIPTTTEQAMIQETTRAVKELGMAGVALFVGPTAKPPDMACFEGLYRTCEELGAVVWMHPCRPQSYADYDSYKGEGSKHQIWNTFGWIYDTSVAMVHIALAGVFRRYPGLKVVTHHHGAMVPFFTARFDTQRRNFQEVEGDDLLEDLRLFYCDTATFGESAANIQQAIDFFGKSQVLFGTDTPMDMGTRGMFTRTTIASVEALGAAPEDKESFYAGNVLDMLGERFAGISGARGAVAARPKGDSTRIAASL | 1.7 | Low | Low |
| 72 (protein, Cupriavidus necator) MADCPCCVSPKRRRLLGSVSAIAAGMMAGLPALAAQPSTAAAGTGKPLSIDIHAHYYSESFLGLLGGEGKQFGGHFFRNDDSFTFQTPAGGLGPLPMKFIDVEQRVRDMDNSGVDVQAISLSVPMVYWADRTLNAKLARAWNTAASDVHRKHPTRFVVLATLPMLNANDAIDELEFAAGLPGVRGIYMGTNINNRDLDDPLFSPIFKRIEQLNLPIFLHPQQTVGGARLADFYLSNLLGNPFDTAIAASHLILGGVLDKYPALHFSLPHAGGALPILVGRIDAGWSMRSETKRVAQKPSSYLRRFSYDTISHSGPTLDFLIRNIGADRLVLGSDYCFDMGYEQPVRFLDRLALPDDQKRMVVGGNAARLLNL | 1.2 | Low | Low |
